Data published in paper PMC8573170 (2021).

Tests used:
[1] = biological target: T1, alpha-thrombin (Homo sapiens, UniProt P00734); assay: SPR
[2] = biological target: T1, alpha-thrombin; assay: inhibition of S-2238 hydrolysis, Morrison fit
[3] = biological target: T1, alpha-thrombin; assay: inhibition of S-2238 hydrolysis, Kiapp versus substrate concentration regression

Row | Binder | Kd [1] | Ki [2] | Ki [3]
1 | KPVEAEVAQPKLYQRGEGGNGMEPIPEDVLNEALNA [XC-43 mature peptide] | 3 pM | 0.0061 nM | 7.7 pM
2 | KPVEAEVAQSNLDECEVEAEVAQPKLYQRGEGGNGMEPIPEDVLNEALNA [XC-42 mature peptide] | – | 0.018 nM | –
